# Assay results published in patent publication US7566453B2, “Methods for treating melanomas” (Chugai Seiyaku Kabushiki Kaisha, priority 1998, dated 2009).
# Target: T1, human IL-6 receptor (Homo sapiens, UniProt P08887)
# T1 sequence (P08887 20-468): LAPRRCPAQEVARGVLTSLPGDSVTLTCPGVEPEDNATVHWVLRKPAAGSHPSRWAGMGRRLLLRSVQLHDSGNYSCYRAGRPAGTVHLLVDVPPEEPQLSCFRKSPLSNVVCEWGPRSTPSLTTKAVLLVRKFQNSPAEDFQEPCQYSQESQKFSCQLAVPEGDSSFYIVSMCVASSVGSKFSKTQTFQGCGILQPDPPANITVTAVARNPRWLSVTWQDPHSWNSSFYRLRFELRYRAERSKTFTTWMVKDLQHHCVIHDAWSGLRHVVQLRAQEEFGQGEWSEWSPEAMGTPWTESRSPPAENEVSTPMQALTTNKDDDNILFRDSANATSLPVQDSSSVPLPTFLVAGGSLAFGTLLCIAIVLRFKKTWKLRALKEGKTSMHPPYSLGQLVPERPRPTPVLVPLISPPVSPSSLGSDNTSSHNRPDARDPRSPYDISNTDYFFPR
# Test: ELISA of binding to human IL-6 receptor
# Source text: In order to express genes of L chain and H chain of the reshaped human PM-1 antibody thus constructed, DNA encoding the L chain or the H chain was separately inserted into a vector containing the human elongation factor 1α (HEF-1α) promoter, and a vector expressing the L chain or the H chain of the reshaped human PM-1 (hPM-1) antibody was constructed. By simultaneously inserting these two expression vectors into CHO cells, a cell line that produces reshaped human PM-1 antibody (hPM-1) was established.
substance,measurement,value
"hPM-1: reshaped human PM-1 antibody: CDRs of mouse anti-IL-6 receptor antibody PM-1 grafted to human antibody, produced in CHO cells",ability to bind to human IL-6 receptor,confirmed by ELISA
